Measured values: PMC3678999, “A Structural Basis for IκB Kinase 2 Activation Via Oligomerization-Dependent Trans Auto-Phosphorylation” (PLoS Biology, 2013)
Values joined by “and” are separate entries in the source; they are usually repeats but may differ in a detail not shown here. Equal entries are not always repeated.

Columns and labels:
[1] = target: T1, His-tagged full-length human IKK2 (human), O14920; assay: SEC-MALS; SEC-MALLS; protein pretreated with 1 mM ATP, concentrated as for crystallization; Zenix SEC-300 column, 20 mM Tris-Cl pH 8, 150 mM NaCl, 5% glycerol; details: remark: other sources report otherwise
T1 chain: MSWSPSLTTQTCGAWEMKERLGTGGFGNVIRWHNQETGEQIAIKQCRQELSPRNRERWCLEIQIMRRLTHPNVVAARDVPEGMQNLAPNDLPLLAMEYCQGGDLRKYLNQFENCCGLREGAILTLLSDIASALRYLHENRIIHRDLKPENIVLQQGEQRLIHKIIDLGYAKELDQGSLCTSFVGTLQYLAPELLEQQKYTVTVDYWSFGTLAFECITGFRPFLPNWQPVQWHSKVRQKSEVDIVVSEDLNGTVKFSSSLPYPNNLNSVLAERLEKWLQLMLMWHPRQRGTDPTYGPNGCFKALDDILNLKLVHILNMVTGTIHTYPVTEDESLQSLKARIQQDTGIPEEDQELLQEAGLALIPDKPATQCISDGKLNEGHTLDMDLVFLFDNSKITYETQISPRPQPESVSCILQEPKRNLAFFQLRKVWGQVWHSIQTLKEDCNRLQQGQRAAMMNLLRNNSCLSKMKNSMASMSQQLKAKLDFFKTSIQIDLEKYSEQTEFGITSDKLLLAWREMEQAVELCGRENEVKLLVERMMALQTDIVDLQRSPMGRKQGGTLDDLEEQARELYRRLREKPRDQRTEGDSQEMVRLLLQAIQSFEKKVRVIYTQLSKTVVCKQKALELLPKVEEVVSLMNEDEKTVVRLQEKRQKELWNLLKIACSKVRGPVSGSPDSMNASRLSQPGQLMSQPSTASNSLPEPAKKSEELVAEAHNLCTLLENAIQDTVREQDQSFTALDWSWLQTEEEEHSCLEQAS

[2] = target: T1, His-tagged full-length human IKK2 …; assay: AUC; sedimentation velocity, ~0.5 mg/ml, 30,000 rpm, 20°C, 15 h; Sedfit; details: remark: other sources report otherwise
[3] = target: the molecule itself; assay: crystal structure; tetragonal crystal form, space group P4(1)22, six protomers in the asymmetric unit; protein mixed with inhibitor MLN120B 1:2; sodium malonate pH 6.5, 18°C
[4] = target: the molecule itself; assay: crystal structure; hexagonal crystal form, data to 7 Å; molecular replacement with the hIKK2EE(11–669) model and rigid body refinement, called a probable solution; protein mixed with inhibitor MLN120B

B1: His-tagged full-length human IKK2, O14920 1-756 (enzyme)
chain: T1 chain
For B1, the stoichiometry N [1] was 4 and the stoichiometry N [2] was 4 and 6 and 8.

B2: human IKK2 (amino acids 11–669), constitutively active S177E/S181E (domain or fragment, UniProt O14920 11-669, looked up)
chain: TCGAWEMKERLGTGGFGNVIRWHNQETGEQIAIKQCRQELSPRNRERWCLEIQIMRRLTHPNVVAARDVPEGMQNLAPNDLPLLAMEYCQGGDLRKYLNQFENCCGLREGAILTLLSDIASALRYLHENRIIHRDLKPENIVLQQGEQRLIHKIIDLGYAKELDQGELCTEFVGTLQYLAPELLEQQKYTVTVDYWSFGTLAFECITGFRPFLPNWQPVQWHSKVRQKSEVDIVVSEDLNGTVKFSSSLPYPNNLNSVLAERLEKWLQLMLMWHPRQRGTDPTYGPNGCFKALDDILNLKLVHILNMVTGTIHTYPVTEDESLQSLKARIQQDTGIPEEDQELLQEAGLALIPDKPATQCISDGKLNEGHTLDMDLVFLFDNSKITYETQISPRPQPESVSCILQEPKRNLAFFQLRKVWGQVWHSIQTLKEDCNRLQQGQRAAMMNLLRNNSCLSKMKNSMASMSQQLKAKLDFFKTSIQIDLEKYSEQTEFGITSDKLLLAWREMEQAVELCGRENEVKLLVERMMALQTDIVDLQRSPMGRKQGGTLDDLEEQARELYRRLREKPRDQRTEGDSQEMVRLLLQAIQSFEKKVRVIYTQLSKTVVCKQKALELLPKVEEVVSLMNEDEKTVVRLQEKRQKELWNLLKIACSKVRGPV
notes: human IκB kinase 2 (IKK2/IKKβ), amino acids 11–669, with S177E/S181E; Cloned in pFastBacHTb (N-terminal hexa-histidine tag, TEV site); Incubated with ATP/MgCl2 before the size exclusion column; also called IKK2(11–669)EE; hIKK2EE(11–669); source: Sf9 (baculovirus), purified (Ni-NTA, TEV, Superdex200); not shown: His6, N-terminal, cleaved
With B2 the “stoichiometry N” value [3] was 2 and 4.

B3: human IKK2 (amino acids 1–700), constitutively active S177E/S181E (domain or fragment, UniProt O14920 1-700, looked up)
chain: MSWSPSLTTQTCGAWEMKERLGTGGFGNVIRWHNQETGEQIAIKQCRQELSPRNRERWCLEIQIMRRLTHPNVVAARDVPEGMQNLAPNDLPLLAMEYCQGGDLRKYLNQFENCCGLREGAILTLLSDIASALRYLHENRIIHRDLKPENIVLQQGEQRLIHKIIDLGYAKELDQGELCTEFVGTLQYLAPELLEQQKYTVTVDYWSFGTLAFECITGFRPFLPNWQPVQWHSKVRQKSEVDIVVSEDLNGTVKFSSSLPYPNNLNSVLAERLEKWLQLMLMWHPRQRGTDPTYGPNGCFKALDDILNLKLVHILNMVTGTIHTYPVTEDESLQSLKARIQQDTGIPEEDQELLQEAGLALIPDKPATQCISDGKLNEGHTLDMDLVFLFDNSKITYETQISPRPQPESVSCILQEPKRNLAFFQLRKVWGQVWHSIQTLKEDCNRLQQGQRAAMMNLLRNNSCLSKMKNSMASMSQQLKAKLDFFKTSIQIDLEKYSEQTEFGITSDKLLLAWREMEQAVELCGRENEVKLLVERMMALQTDIVDLQRSPMGRKQGGTLDDLEEQARELYRRLREKPRDQRTEGDSQEMVRLLLQAIQSFEKKVRVIYTQLSKTVVCKQKALELLPKVEEVVSLMNEDEKTVVRLQEKRQKELWNLLKIACSKVRGPVSGSPDSMNASRLSQPGQLMSQPSTASNSLPE
notes: human IκB kinase 2 (IKK2/IKKβ), amino acids 1–700 (amino acid 701 mutated to a stop codon), with S177E/S181E; Hexagonal crystal form, data to 7 Å; no PDB entry is named for it; also called hIKK2EE 1–700; hIKK2EE(1–700); source: Sf9 (baculovirus), purified (Ni-NTA, TEV, Superdex200); not shown: His6, N-terminal, cleaved
In the case of B3, the “stoichiometry N” value [4] is reported as 2.
